From patent publication US20160311919A1 come the findings set out here.

The target of test [1] is GPNMB-V5His (recombinant human GPNMB extracellular domain with C-terminal V5-His tag) (human) (UniProt Q14956). The experiment in a line: ELISA, coated GPNMB, secondary antibody alone (column head 3 ug/mL).
Test [2] has as its target GPNMB (CG56972), native full-length protein on the cell surface or in cell lysates (human) (UniProt Q14956). The experiment in a line: flow cytometry on HEK293 cells transfected with GPNMB plasmid, secondary antibody alone; on empty-vector cells it prints 5.86.
The target of test [3] is GPNMB-V5His (recombinant human GPNMB extracellular domain with C-terminal V5-His tag) (human) (UniProt Q14956). The experiment in a line: ELISA, coated GPNMB, Ab 1 ug/mL.
Test [4] has the same target. The test can be described thus: ELISA, coated GPNMB, Ab 3 ug/mL.
For test [5] the target is unchanged. The test can be described thus: ELISA, coated GPNMB, Ab 37 ng/mL.
The target is the same in test [6]. The experiment in a line: ELISA, coated GPNMB, Ab 111 ng/mL.
Test [7] has the same target. The experiment in a line: ELISA, coated GPNMB, Ab 333 ng/mL.
For test [8] the target is unchanged. The test can be described thus: ELISA, coated GPNMB, Ab 12.3 ng/mL.
Test [9] shares this target. The experiment in a line: SPR (Biacore), mAb on protein A, GPNMB 880 nM.
For test [10], the target named is GPNMB (CG56972), native full-length protein on the cell surface or in cell lysates (human) (UniProt Q14956). The test can be described thus: flow cytometry on SK-MEL-2 cells, Anti Human IgG PE.
Chain of GPNMB (CG56972), native full-length protein on the cell surface or in cell lysates (human) (Q14956 23-492): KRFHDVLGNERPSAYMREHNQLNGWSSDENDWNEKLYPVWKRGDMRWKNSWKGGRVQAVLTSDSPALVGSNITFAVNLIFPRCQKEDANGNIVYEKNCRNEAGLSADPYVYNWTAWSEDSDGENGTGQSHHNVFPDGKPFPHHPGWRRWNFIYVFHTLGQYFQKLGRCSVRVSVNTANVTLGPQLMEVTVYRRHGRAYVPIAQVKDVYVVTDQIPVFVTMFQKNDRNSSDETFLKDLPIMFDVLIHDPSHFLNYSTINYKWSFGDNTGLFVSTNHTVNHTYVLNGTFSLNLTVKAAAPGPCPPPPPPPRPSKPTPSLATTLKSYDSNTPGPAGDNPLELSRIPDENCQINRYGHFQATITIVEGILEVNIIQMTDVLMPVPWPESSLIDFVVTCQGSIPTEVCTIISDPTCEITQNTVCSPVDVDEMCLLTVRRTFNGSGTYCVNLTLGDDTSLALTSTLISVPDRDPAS
Test [11] shares this target. The experiment in a line: FACS, UACC-62 cells, Ab 1 ug/mL.
For test [12] the target is unchanged. The experiment in a line: flow cytometry on HEK293 cells transfected with GPNMB plasmid, 10 µg/mL antibody, PE goat anti-human secondary; the same staining on empty-vector cells prints 7.96.

pKd: −log10 of the molar value.

Regarding “Secondary Ab control (Table 6) (antibody)”, the Avg OD in test [1] came to 0.011 OD.

With Secondary Ab-PE (antibody), the Geometric Mean in test [2] is 7.69.

In the case of “Mab1.15.1 (CR011), fully human IgG2 (antibody)”, the Avg OD in [3] is 1.05 OD; in test [4], 1.16 OD; in test [5] it was 0.381 OD; in test [6], 0.701 OD; in test [7], 0.902 OD; in test [8], 0.168 OD. The pKd in [9] is 7.28.

Turning to Control (antibody), in [10], the Geo Mean was 3.03, the Mean was 3.54 and the Median was 2.84.

Consider CR011.2.6.2 (antibody), for which the Geo Mean Ratio (relative to pK16) in test [11] was 1.9.

For the substance Irrelevant Antibody (Table 6), the Avg OD in test [3] turned out to be 0.008 OD; in test [4], 0.009 OD; in test [6], 0.013 OD; in test [7], 0.012 OD.

Take Isotype control (Table 6) (antibody): the Avg OD was determined as 0.008 OD in [3]; 0.009 OD in test [4]; 0.009 OD in test [5]; 0.009 OD in test [6]; 0.009 OD in test [7]; 0.011 OD in test [8].

isotype-matched control IgG2 antibody had a Geometric Mean in test [12] of 8.63.
